Laboratory results as given in patent US20180072770A1, “Influenza Virus Binding Peptides” (priority 2014, published 2018).
No end group written: not given here.

Legend:
[1] = target: T1, hemagglutinin of influenza A virus X31 (A/Aichi/2/68 H3N2) (influenza A virus A/Aichi/2/68 H3N2 (X31)), P03437; assay: cell-based or functional assay
[2] = target: T1, hemagglutinin of influenza A virus X31 …
[3] = target: T1, hemagglutinin of influenza A virus X31 …; remark: listed apart in the source
[4] = target: T1, hemagglutinin of influenza A virus X31 …; assay: SPR competition, virus preincubated with peptide, immobilised fetuin

Row | Binder | Hemagglutination inhibition (IC50, HAI) [1] | Mean Ki(HAI), hemagglutination inhibition assay, human erythrocytes [1] | Kd [2] | IC50 [3] | fold lower IC50,RB than the reference peptide SEQ ID NO:1 [4]
1 | KKKKFYDYDVFY (not fully specified (C-terminus)) [reference peptide with SEQ ID NO:1 (FYDYDVFY), N-terminal (Lys)4, C-terminal amide] | 163 µM | 235 µM | 59 µM | 90 µM | –
2 | KKKKFYGYDVFF (not fully specified (C-terminus)) [peptide with SEQ ID NO:28, N-terminal (Lys)4, C-terminal amide] | 18 µM | 31.9 µM | – | 20 µM | 4.5 fold
